# According to the domain aggregation screens of Martell et al. (2025):
# Assay: soluble fraction after stress (log2 fold change); higher = more stays soluble; pooled small domains, quantitative proteomics
# Settings: stress: 50 degC
# How it was run: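 The stress applied to every library was 50°C. These custom libraries of small protein domains were pooled and measured at high throughput with quantitative proteomics as the read-out. Aggregation propensity is expressed as the base-two logarithm of the fold change in how much of each protein remains soluble. The higher the value, the more of that protein stays in solution.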
row,Sequence,soluble fraction (log2)
1,HMTSQVTVHVVGAVEKPGVVTLDAPSRVQDALEAAGGALPEAELSGVNLARELFDGEQIVVPAQGEDV,-0.0113
2,HMTPPAQQPHEGLPTDETATDAKTLVQKSRWWLEEEQRQREAGNTAYAERIRLALIQLLYRAERA,0.0784
3,HMSIESPEEFNAKFPPGSEIYATNIQKNAIVQSPANAKGDVEILANSMRLTINFRFISKRDT,0.0469
4,HMVTVNAFGKSGPEPAAMTKEALAKGADEVRVIVDSPTAAASVRDFLIGAGLRVQLQDDEGQLIVVGEKK,0.215
5,HMRSPIWKSITATLTAEIAGGQYRAGDKLPTEAELSQRFGVNRHTLRRALAEMAGAGLVVARRGAGVFVQG,-1.94
6,HMGPSSIVVYVSGAVKTPGVYTLAPGSRVDDAVRAAGGLSERAESAGTNLAAQLSDGEHVHVAAAGE,0.228
7,HMKFINISIDKSGNLFINKKSIKFQDLKYNVVNLVDESKNLVVLNADENISHGYVISVLDVLRSIDGLKLA,-2.18
8,HMRMSLDEAKAVVLPIGEYKGRNMGEVLAIKPELIDFYASQKFNSSKYPYLKEAAQVILENQ,-0.0538
9,HMRDYKTHLQEVLQSKGEVNIWYKLIDEKGPDHNKKFVMQVGIDSKILGFGEGKSKKEAEQVAARKALDNI,-0.118
10,HMITGSIQPKNGKYYAVLNLYDHTGKRRPKWVSTGYTVKGNKKKAQEVLNELTRRYSAQLPPSK,-0.512
11,HMTEEEEFEKGFEILVNLSHFNRFSVYKEDEYVIVRIADYDFNEYFKVKKSDVGRIAEFLNENIT,-2.4
12,HMRKIVEGVLTKKEGKWYLLTDIETYKISDASAEYHKAELNDRASALIPAQNPKVPFASLEKVFN,-0.219
13,HMGGNVYAYRLTASVKSGEQIPANKIEKVKMLSSDLPTNYVPDTVNVTAYKSKLDLQAGTILSTSLLYEN,0.0242
14,HMAAGADEATTVPNVSGDTLNQAIKSLKAEGLGYMLSGAGARVRDQMPEPGAEMTKGSVVMLYMDGDAEVD,-0.0304
15,HMEHDTVLSKVFRRLREAHVPLSLDDIYQGLRKTVNNNSEIREKIVTLQERGLVAEILGPKGGKKYVAKPT,-0.105
16,HMQPASPELNNQEKKVLQALPENEVIHIDELSDKIQIPVGELLTVLLSLEMKETVIQEPGKFFRRR,-1.28
17,HMEDPPISQEQRQALFKMAHDHLGKDEGNKAILTLIQSHGLNSTTGMKVSTYNTIMEELVSTIQSLAA,-0.0686
18,HMALDLNEDEKLLVELIEKAGGTAGLGELKEASGLSGKKWDKTTKNLSKEGLIKVEKNESGLWVHLT,0.153
19,HMAAPPPLSDYRNMQEAEHIRNILLQHHGNVRRAAAALELSRPYLYQKMKQLGINIAELRELSLSHSS,-0.559
20,HMGSPKLVIKNGQVDYQVLKKEKLDLLELTSLLRGQNTFSIREIEYAIIEPNGVITVIKKPEYQSVVKGDL,-0.239
21,HMIDEPENLIQEDKMVNIIYDLALLEGVKTFNSSNFQSVKSNDFVYKKYKIDSLQFAKSTQFYASDINR,-0.168
22,HMPVQPMDPSIEHISALTGKQFQAFPGQDHRAHMTAHLNFMSTNIVRNNPAVMGAIQKNILEHISLMAQEQ,0.153
23,HMGQVPPLTRRETEIARLVSRGLSNKEIASTLVISPRTAEGHVEHILDKLGFSSRTQIATWLNEQTRNGK,-0.0938
24,HMTVKEYNRAVDEYSDAVWRFIRGNLRDEDRANDIVQDSFEKLWMHVTEIDYSVAKSWLFSTAYNNMIDI,-0.277
25,HMIQNTGMMESGDSIRGMALDAGFPLLMVVGYRGWTRKGNTPDSAAVYTEPFLNAFRLNYYLVEHDE,0.309

row,Sequence,soluble fraction (log2)
1,HMSLLLTPREASVWASEYLGKKVTSNNIIYLLNYGKIANHSTDLKENLIDKNELKIYYDSTIKSQKH,-0.216
2,HMEISLAETLRSSLHMILGWYQNTGDKKLLELIRLHLQAYVNTGNSLNPEMEEIRAALETLGEGKEAFRP,-0.999
3,HMQEHAHLWRLMEDNRSFKADYIAFENGIVLLQNLSSGKISQYPITDFSIEDQLLILKRHELTAHINAN,-3.09
4,HMSEMDNMEWVREQYFQNMIYEIGEWVRDKKTGIVGEVVKRGTNYVTVVQEDFSLHKIWLEDLETTEK,-0.821
5,HMEASVNAPMPGKIVSVSVSEGQQVNAGDVLLILEAMKMQNEITADAAGTVKAINVNAGQSVKNGDSLVIL,0.469
6,HMQIIEVPYSEFLKKLESGQISEVSRDSYQIVFTDRSQPPIIYKTGLMEDPGLVDKMQEAGVTFTSP,0.12
7,HMHSLGDQVFETIKELIVNNTYQPGELLQIDKLAAEFGVSTTPVREALLRLEGLGLVDIERNKAAVVT,-0.112
8,HMTIELAEGQHFLQISKSGAPMGNVVRDLIIQTLKITNGNQIKAAKILGISRAKLRYRIEQLGINITGKNI,-2.67
9,HMVNIEAEVGRRLRQLRARRGLSLRALADLSGLNVNTLSLIENSKTSPSVSTLQQLARSLQVPITTFFESD,-0.447
10,HMKTKILAPIPGSIMVVDVKVGDTVKVGDRLVQLEAMKMENNITSEKAGKITAVLVTAGQKVLQNEVMIEL,-0.853
11,HMSGTFIGGELVKPGEPLTPMQRAAITMGLQMGNTYSPEIMEKYNNAGGSPSKEEFENYQKNKS,0.101
12,HMNMGEKIRSLIGQFGVTSEDLKNLSVANLLIRMNQEAGDSKTKGILASLLETVNKAGVGNLTPDALGIK,-0.00161
13,HMSTKEFTIHAGEWSYRVSQKLENLGLVSDAKKFDQYLEDNGYSSKIKIGHYTISKDADFEEIAKEIT,0.0383
14,HMTDIDATSIERAVAKRRHFFLSNIQDLTMKMARRLIEKDLGLAPKHLDAAPFKTRITELVDAVIALGD,-0.165
15,HMEVDDEAIYQGHEPSIRLHRLLKDVGYNSALLPSVVTQIFKDFPGIELAKALPIAMQLLNED,-0.403
16,HMDALIWYVSRGQQKFGPFNYFGVLKALQDKSVFEFDYVWKEGTENWVRLAEHELFSQEKVRELLA,-0.203
17,HMVTLQEVKQYLRIDFEEEDPLLLSLLATAKQQVMNVGRMDEAQLSEHEDTARTAILYAVSYLYENRN,-1.85
18,HMENVMLRNFAIQATEAGVIKLLEDQRTFVWGSNNKKFMTVPFDEHPYSAMAAFFKTDEGLEIYKSIEKKF,-1.71
19,HMNSTNYQVIITANGGLNIRAGASTAYARIGGYAKGTVVTILAESNGFGKTDKGWISLNYTSKDLD,-3.07
20,HMTLPEKSKRLFSQDDFWDQIFYRIGEGQSLREVSKYYKIPYTTIHDRIHSDEGIKLKYLEALTS,-0.71
21,HMQDPTAVISRVLEERKHQPGALLPILHGIQDALGYVPREAVAQIAQALNLSRAEIHGVVSFYHHFR,-0.547
22,HMSTEAFLGTEGEVVLPLLPDGLGKIRLHVADQDVELPARTGGEPIQIRERVVVVRFRDGIAEVEPAP,0.191
23,HMGEVYPSDIVEKMKQANLHILEGTLYPLLTRLKNAGLLNYRWVESVTGPPRKYFVMTEEGKAAF,0.0419
24,HMLKEGQYSPNHFHWHKMEDIINRGGGTLLIRVYNSLPDEEIDRESDVTVHMDGVTRTVPAGTQLRLE,-0.229
25,HMGELDFYEEMRDDYLTGKIWNVGEIVEAKGMIGEIVRKGTNYISFVTDDNKVHKAWLHEIKL,-0.634

row,Sequence,soluble fraction (log2)
1,HMQDPVWVDWLGENDWFQKDPKRRGLANGYSEILRAEQPELVGRPFLDEVTRRVQADFPELFG,-0.335
2,HMYQFFVDPGQIQGKRVTITGSDVNHIKNVLRMRIGEEIAVSNGKDGLEYRFGIDEILEDEVIGTLRFVKE,-0.968
3,HMSAETRSWTDAQGNQTQAVLRGFDGGDVLLQNAAGKTLRVPVKNLSEDDQRYVVLNISTLID,0.0786
4,HMIYSKSDLELFGIKKIDVMEENILMLILSEYELDQTPKNILIDEAVRLSKKFGADNAYKFVNATLDTLL,-0.944
5,HMKDPSLEHIDALAGKPFQAFPGQDHRAHITAHLNFMSTNMVRNNPSIMAAIQKNILEHISLMAQEQIQL,-0.783
6,HMREQAHEVAGKLGYPVMVKASAGGGGKGIRIVRTEDELDQAFEAAQSETKAAFGDDQMYMEKVI,0.00859
7,HMRVGISRNSGAAGIAVWLTQKLGRPVAKTEEIVHILKNWVDDQYEAGRVTNIGDGELWSVYKQMEAEE,-0.359
8,HMSRMLTVKQREVFDLAMREGYWETPRRITLTMLASLLSVSKSTLSVQLHKIEGTVLSSFSDEVRRRS,-1.49
9,HMSYQADEIKEKLIDILQNQKTGLSGLEISERIGINRITMTKYLQVFAAEGFIKQKNIGNVIIWFIEDGTE,-0.181
10,HMRWGDPLTVKVPSFIGQTKDDIAKQHYPFRIEWHGEGAKIGSQLPEVDSVIKQDGTIHLYLV,-0.104
11,HMQQRTVEHVDTAVEALALSIGERAGVDLPYMAHLTGKTQEDLIEDLTGVIFPVPGTEPLRYVTADDYLS,0.028
12,HMASLSITVNGETRRAAPGSIADLVRAIGLDPAKVAVERNGEIAPRSTLADVALADGDVLEIVHFVG,-0.0709
13,HMTNKQEYAYQWLKSSIIENKIKPSTLLVERHLSEMLHISRTPVRTALMRLADEGFVVISPGRGMVVA,-2.03
14,HMENYQIETFVKFIEESTGEDGVAFEDLFQNFTSRPAVITMFLALLEALRRNSIRIFQKEEFSQILIYPK,0.084
15,HMDVAWDAIKAKLKEVVDAEDKAHPLNDDQIVKALGESGITIARRTIAKYRDLLGIPPARKRKA,0.0649
16,HMVFQTAAEKAYEIISKKIMKGEYEPGMRLVRRQLAQELGVSPIPILEAMKRLEQDGLIEYKAHWGSIVTI,-1.97
17,HMYDKKVFRLLFILNQLDSRKKVSTGELAKEFNVSPRTVQRDIVLLNTTGFPIISLEKGYHSFMEGFSLK,-1.12
18,HMGRKPATTIPLQVRNAVLDLYRTKYYGANFQHYTELLHEHEGIRISTSSVAKILEAEYILSPK,-1.69
19,HMQSAMALTKDLIEQQGKYYHRGQPFTGVGFAKNKKGKFVTEEPFKNGLLHGKRVNYDHNGHVLAREK,0.264
20,HMEISTEVPLRGGTISEEALEALNRLPGVTASNIDGKSISVDVADNAELRVSDINQVLAVHSPDTRV,0.209
21,HMIADSSSIHQDAKQQLHSYLRTNIQPLMRAGKQLDLKDILHHVTIRKPKLVQQLGMKQVQHMVQVLLD,0.224
22,HMPDAIPLETIIKNVNVLAGFLINSKTFTEDDIVMAYNNIMKIKGDHTDEKTLTNDVYTLLTEMN,-0.469
23,HMKGVENLSDIDIQKALNNARANLSKNKAKLEQAGDDEKKKASALAMIQKWETTKKAIEEEIEARKKKSLN,-0.296
24,HMDLGLTDDQRLVYGLLSPTVPRSSGELLGMVDFGRSKLSRILKELIELGQVFTVGVGRGLKYKRG,-0.307
25,HMVKIIHYEVYANRGDGWKLVDQFSADQRQEAVNLAKEIETEDQVAVKIIREIFDVQDNTYQESVEYIG,-0.51
